In paper PMC6534540:

Target: N-term biotinylated candidalysin (Candida albicans)
Experiment: SPR; Biacore T100; N-term biotinylated candidalysin captured (up to 1000 RU) on neutravidin coupled to a CM5 chip, free sites blocked with PEG-biotin; EGFR domains injected at 250, 500, 1000 and 2000 nM at 10 µL/min; HBS-EP buffer (10 mM HEPES pH 7.4, 150 mM NaCl, 3 mM EDTA, 0.005% Surfactant P20); 25 °C; neutravidin-only reference cell

Sequence of N-term biotinylated candidalysin (Candida albicans) (Q07730 62-92): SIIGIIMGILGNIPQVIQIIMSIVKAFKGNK

## EGFR transmembrane portion (domain or fragment)
  SPR signal response: < 50 RU
